Reference: article PMC10620760, “Phosphorylation controls spatial and temporal activities of motor‐PRC1 complexes to complete mitosis” (The EMBO Journal, 2023)
Numbering of substitutions follows the chain as printed. Ends that are not written are not given here.

B1: 647GST‐CENP‐E_(2639–2671) (domain or fragment, human, UniProt Q02224-1 2639-2671, looked up)
chain: SPKSCFFDSRSKSLPSPHPVRYFDNSSLGLCPE
modifications: cysteine pairing not given here; also: Alexa Fluor 647 label, site not given here (degree of labelling ~1:3), GST fusion
notes: also called pAG118
B2: PRC1_(1–168) (domain or fragment, human, UniProt O43663 1-168, looked up)
chain: MRRSEVLAEESIVCLQKALNHLREIWELIGIPEDQRLQRTEVVKKHIKELLDMMIAEEESLKERLIKSISVCQKELNTLCSELHVEPFQEEGETTILQLEKDLRTQVELMRKQKKERKQELKLLQEQDQELCEILCMPHYDIDSASVPSLEELNQFRQHVTTLRETKA
notes: Dimer by SEC-MALS (52 ± 2.5 kDa measured); source: E. coli BL21-CodonPlus (DE3)-RIL, purified (HisTrap, SEC)
B3: GST‐CENP‐E_(2605–2701) 2SD (domain or fragment, human, UniProt Q02224-1 2605-2701, looked up)
chain: SPKSPKVTGTASKKKQITPSQCKERNLQDPVPKEDPKSCFFDSRSKSLPDPHPVRYFDNSSLGLCPEVQNAGAESVDSQPGPWHASSGKDVPECKTQ
notes: also called pAG96; source: E. coli BL21-CodonPlus (DE3)-RIL, purified; not shown: GST, N-terminal, kept
B4: GST‐Kif4A_(1133–1232) (domain or fragment, human, UniProt O95239 1133-1232, looked up)
chain: TQDSEGSFKLEDPTEVTPGLSFFNPVCATPNSKILKEMCDVEQVLSKKTPPAPSPFDLPELKHVATEYQENKAPGKKKKRALASNTSFFSGCSPIEEEAH
notes: also called pAG127; source: E. coli BL21-CodonPlus (DE3)-RIL, purified
B5: PRC1_(1–168) MEE (domain or fragment, human, UniProt O43663 1-168, looked up)
chain: B2 chain with M54A, E57A, E58A
notes: Vector pET Duet 1; dimer by SEC-MALS; source: E. coli BL21-CodonPlus (DE3)-RIL, purified

Key:
PRC1_(1–168) [1] = molecular target: T1, PRC1_(1–168) (human, UniProt O43663 1-168); assay: ITC
T1 chain: B2 chain

GFP‐PRC1 = molecular target: T2, GFP‐PRC1 (human, UniProt O43663 1-620); assay: TIRF microscopy, recruitment to microtubules in vitro; GMPCPP-stabilized rhodamine microtubules mixed with 647GST-CENP-E(2639-2671) alone, GFP-PRC1 alone or both, held on coverslips by anti-tubulin antibodies; 80 mM PIPES pH 6.9, 5 mM MgCl2, 1 mM DTT, oxygen scavenger; details: both partners purified
T2 construct: protein regulator of cytokinesis 1 (PRC1), human; Purified recombinant GFP-PRC1 of the TIRF assay; probably full length
T2 sequence (looked up): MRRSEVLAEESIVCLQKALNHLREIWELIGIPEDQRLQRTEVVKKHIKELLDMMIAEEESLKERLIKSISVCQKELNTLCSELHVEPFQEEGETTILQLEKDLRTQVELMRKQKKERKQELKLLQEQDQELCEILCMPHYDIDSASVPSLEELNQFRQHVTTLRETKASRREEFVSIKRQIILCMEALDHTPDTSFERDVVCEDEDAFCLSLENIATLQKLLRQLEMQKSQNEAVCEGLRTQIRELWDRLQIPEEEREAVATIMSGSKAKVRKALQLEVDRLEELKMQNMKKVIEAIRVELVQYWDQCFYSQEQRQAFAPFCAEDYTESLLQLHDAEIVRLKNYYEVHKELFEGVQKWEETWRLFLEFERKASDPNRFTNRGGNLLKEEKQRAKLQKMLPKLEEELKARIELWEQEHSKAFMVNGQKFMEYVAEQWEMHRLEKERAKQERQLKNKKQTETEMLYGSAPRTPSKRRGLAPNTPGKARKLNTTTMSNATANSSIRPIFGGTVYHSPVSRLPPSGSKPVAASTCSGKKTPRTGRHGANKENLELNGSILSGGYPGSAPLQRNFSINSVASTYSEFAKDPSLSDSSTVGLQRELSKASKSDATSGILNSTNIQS

[2] = molecular target: the molecule itself; assay: SEC-MALS; 100 μl of 3.6 mg/ml PRC1(1-168) (152 μM) or 2.0 mg/ml PRC1(1-168) MEE (84 μM), Superdex-200 Increase 10/300 GL, 20 mM HEPES pH 7.4, 300 mM NaCl, 1 mM EDTA, 22°C
[3] = molecular target: GST‐CENP‐E_(2605–2701) 6SD (human, UniProt Q02224-1 2605-2701, S2639D | S2647D | S2649D (printed S2469D in Table 1; S2649 in the text) | …); assay: ITC
PRC1_(1–168) [4] = molecular target: B2; assay: ITC; PRC1(1-168) titrated into the CENP-E construct or peptide in the cell, 25°C, 20 mM HEPES pH 7.5, 150 mM NaCl, 0.005% Tween-20, 0.5 mM TCEP; one set of sites; concentrations calculated for monomers; details: both partners purified
PRC1_(1–168) [5] = molecular target: B2; assay: SEC; proteins mixed at equimolar (1:1) ratio, Superdex 200 Increase 10/300 GL, 20 mM HEPES pH 7.5, 300 mM NaCl, 1 mM EDTA, 1 mM DTT; fractions on Coomassie-stained SDS-PAGE; details: both partners purified

PVRYFDNSSLG [CENP‐E peptide 2]
Kd (PRC1_(1–168) [1]): 64 µM

PKSCFFDSRSK [CENP‐E peptide 1]
Kd (PRC1_(1–168) [1]): 41.1 µM

B1
binding result (GFP‐PRC1): binds

B2
stoichiometry N [2]: 2 | Kd [3]: > 100 µM

B3
Kd (PRC1_(1–168) [4]): 2.4 µM

B4
binding result (PRC1_(1–168) [5]): binds

B5
stoichiometry N [2]: 2
